The text below walks through data of patent US20190241648A1 (STATEN BIOTECHNOLOGY B V, published 2019).

Where a chain is given by its changes, count along the chain named.

In assay [1] the target is T1, human ApoC3 (huApoC3), native protein purified from human serum (human, UniProt P02656 21-99). Briefly: cell-based or functional assay.
Assay [2] has as its target T1, human ApoC3 (huApoC3), native protein …. Briefly: SPR Biacore, huApoC3 on chip, scFv-Fc as analyte. The procedure: This example describes characterization of anti-ApoC3 antibodies regarding their affinity to ApoC3 under neutral conditions using an SPR-based assay using a Biacore 3000 instrument (Biacore AB). Native huApoC3 protein was immobilized on a CM5 chip. The immobilization was performed in accordance with the method provided by Biacore using the NHS/EDC kit (Biacore AB): after activation of the chip, a solution of 60 μg/ml of human ApoC3 in 10 mM acetate buffer with pH of 4.5 was prepared and injected until the surface density reached approximately 1000 RU. Capturing of the human ApoC3 on the streptavidin coated chip (SA) was performed at pH 7.4 in accordance with a method provided by Biacore via injection of 20 μl 10 μg/ml biotinylated human ApoC3 thereby reaching the surface density of approximately 500 RU. […] After the dissociation, the flow cell surfaces were regenerated by injecting 10 μl of 10 mM […]/1 M NaCl and 10 μl of 10 mM glycine at pH1.5. The resulting sensorgrams were analyzed using the BIAevaluation 4.1 software using Langmuir 1:1 binding model to derive binding kinetics. Data was zero adjusted and the reference cell sensorgrams were subtracted.
A number of scFv-Fc antibodies were examined in this assay. The association rate (ka), dissociation rate (kd), analyte binding capacity (Rmax), equilibrium association constant (KA) and equilibrium dissociation constant (KD) of these antibodies are shown in Table 5.
In general terms: In SPR one partner is held on a chip, and binding of the other changes the refractive index at the surface.

T1 sequence (P02656 21-99): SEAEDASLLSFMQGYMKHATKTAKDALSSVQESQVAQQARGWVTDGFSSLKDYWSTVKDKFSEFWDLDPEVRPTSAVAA

B1: 12E12 scFv-Fc (Fc fusion)
VH: EVQLVESGGDLVQPGGSLRVSCAASGLTFSNIYMSWVRQAPGKGLEWVSAINTAGTVTYYADSVKGRFTISRDNAKNTLYLQMNSLKPEDTAHYYCTTGEVDWGKGTLVTVSS
VL: QTVVTQEPSLSVSPGGTVTLTCGLSSGSVTSVTYPGWYQQKPGQAPRTLIYNTNSRFSGVPNRFSGSISGNKAALTITGALPEDEADYYCSVYIGGGIYPAVFGGGTHLTVL
With B1, the “attenuation of the ability of ApoC3 to inhibit VLDL uptake by HepG2 cells” value in assay [1] is around 40%.

B2: 13G7 IgG1 (antibody, V domains shown)
VH: QVQLQESGPGLVKPSQTLSLTCTVSGGSISTTAPAWGWIRQSPGKGLDWMAVIAFDGSAYYSPSLKSRTLISRDTSKNQFSLQLSSVTPEDTAVYYCARLGGRNYPPYVELWGQGTLVTVSS
VL: QPVLTQPPALSVTLGQTAKITCQGGSLRVSYAHWYQQKPGQAPVLVSYDDDSRPSGIPERFSGSGSGATATLTISGAQAEDEGDYYCQSADSSGDNWVFGGGTHLTVL
With B2, in assay [1], the “EC50, attenuation of ApoC3-mediated LPL inhibition (NEFA production)” value was around 3000 nM.

B3: 13G7 scFv-Fc (Fc fusion)
VH: B2 VH
VL: B2 VL
For the molecule B3, in assay [1], the “attenuation of the ability of ApoC3 to inhibit VLDL uptake by HepG2 cells” value is around 100%.

B4: 12C12 scFv-Fc (Fc fusion)
VH: EVQVQESGPGLVKPSQTLSLTCTVSGGSITTSYYAWTWIRQPPGKGLEWVGAIVYDGSTFYSPSLKSRTSISRDTSKSQFSLQLSSVTPEDTAVYYCARSYGLGLYDLWGQGTQVTVSS
VL: QAVLTQPPSVSGSPGQKFTISCTGSSSNIGDNYVNWYQHLPGTAPKLLIYSNSNRASGVPDRFSGSKSGSSASLTITGLQAEDEADYYCSSWDDSLSGVVFGGGTHLTVL
As for B4, the “attenuation of the ability of ApoC3 to inhibit VLDL uptake by HepG2 cells” value in assay [1] is around 100%.

B5: 12C3 scFv-Fc (Fc fusion)
VH: ELQLVESGGGLVQPGGSLRLSCAASGFTFSSYSMFWVRQSPGKGLERVSGINGGGDRSNYADSVRDRFTISRDNAKNTLYLQMNSLKSEDTAVYYCVIQGYAYWGQGTQVTVSS
VL: DVVLTQTPASLSVVPGESASISCKASQSLVHSDGKTYLYWLLQKPGQSPQRLIYQTSNRGSGVPDRFTGSGSGTDFTLDISGVKAEDAGVYYCAQATYSPHTFGSGTRLEIK
Take B5: the “attenuation of the ability of ApoC3 to inhibit VLDL uptake by HepG2 cells” value in assay [1] was around 85%.

B6: 12D4 scFv-Fc (Fc fusion)
VH: QLQLVESGGGLVQPGGSLRVSCAASGFTFSSSNMRWVRQVSGKGLEWVSTISPDGGKTLYADSVKGRFTISRDNAKNTLHLQMVSLKPEDTALYYCVKAGYDYWGQGTQVTVSS
VL: B5 VL with D1A, V2T, V3M, T7S, A9G, T56V, R59Q, D79K, S99A, T102S
Take B6: in assay [1], the “attenuation of the ability of ApoC3 to inhibit VLDL uptake by HepG2 cells” value is around 60%.

B7: 12D1 scFv-Fc (Fc fusion)
VH: QLQLVESGGGLVQPGGSLRLSCAASGFTFGTYSMRWVRQVPRKALEWVSSISTDGGGTAYRDSVKGRFTISRDNAKNTLYLQMNNLKPEDTAIYYCVIAGYSDWGQGTQVTVSS
VL: SALDVVLTQTPGSLSVVPGESASISCKTSQSLTHSDGKTYLYWLLQKPGQSPQRLIYQVSNRGSGVPDRFTGSGSGTDFTLKISGVKAEDAGMYYCAQATYYPHTFGSGSRLEIER
As for B7, the “attenuation of the ability of ApoC3 to inhibit VLDL uptake by HepG2 cells” value in assay [1] was around 60%.

B8: 13C7 scFv-Fc (Fc fusion)
VH: QLQLVESGGGLVQPGGSLRLSCAASGGTFSRYYMSWVRQAPGKGLEWVSSIYKDGSNTYYADSVKGRFTISRDNAKNTLYLQMNSLKSEDTAVYYCAKALRAEYDYWGQGTQVTVSS
VL: NFMLTQPPSVSGTLGKTVTISCAGTSSDIGGYNYVAWYQQLPGTAPKLLISEVNKRASGIPDRFSGSKSGNTASLSISGLQSEDEADYYCASYRSSNSYVFGGGTKLTVL
As for B8, the “attenuation of the ability of ApoC3 to inhibit VLDL uptake by HepG2 cells” value in assay [1] was around 95%.

B9: 12A3 scFv-Fc (Fc fusion)
VH: ELQLVESGGGLVQSGGSLRLSCAASGFTFSNYAMRWVRQAPGGRLEWVSSINIAGSSVVYADSVKGRFTISRDNAKNTLYLQMNSLKSEDTAVYYCAMQGFVYWGQGTQVTVSS
VL: DVVLTQTPGSLSVVPGESANISCKAGRSLVHSDGRTYLYWLLQKPGQSPQRLIYQVSNRSSGVPDRFTGSGSGTDFTLKITGVKAEDAGVYYCAQGTYYPVTFGQGTKVELK
On to B9, for which the “attenuation of the ability of ApoC3 to inhibit VLDL uptake by HepG2 cells” value in assay [1] is around 100%.

B10: 11H1 scFv-Fc (Fc fusion)
VH: ELQLVESGGGLVQPGGSLRLSCAASGFTFSSYSMRWVRQAPGKGLEWLSSIKSDGSITSYADSVKGRFTMSRDNAKNTLYLQMNSLKSEDTAMYYCTNQGYINWGQGTQVTVSS
VL: ATMLTQSPGSLTIVPGESASISCRASQSLIHSAGKTYFYWLLQKPGQRPQLLIYQVSNRESGVPDRFTGSGSGTDFTLKISGVKAEDAGVYYCAQGTYNPKTFGQGTKLEIK
notes: scFv-Fc format
One may read the Kd as the free concentration of one partner at which half of the binding sites on the other are occupied at equilibrium, for simple one-to-one binding. High values mean lower affinity, low ones higher affinity. As a reminder, the koff is a measure of how fast the partners let go of each other. The low end stands for slow dissociation, the high end for fast dissociation. What is called kon is the second-order rate constant of association. Regarding B10, in assay [2], the Ka turned out to be 5.89e+08 M⁻¹, binding was characterised by a dissociation constant (Kd) of 1.7 nM, the koff is 0.000207 s⁻¹ and the kon stood at 122000 M⁻¹ s⁻¹.

B11: 8B7 scFv-Fc (Fc fusion)
VH: EVQVQESGPGLVKPSQTLSLTCTVSGASITNRRYAWTWIRQPPGKGLEWMGVIVYDGNTHVSPSLRSRTSISRDTSKNQFSLQLSSLTPEDTAVYYCARVLLLRDPLSLDYWGQGTQVTVSS
VL: SSALTQPPSMSGTLGKTLTISCAGTSSDIGAYNFVSWYQQLPGTAPKLLIYDIDKRASGIPDRFSGSKSGNTASLSISGLQSEDEADYYCAAYGSRDNVVFGGGTHLTVL
notes: scFv-Fc format
In assay [2], B11 registered a Ka of 4.16e+09 M⁻¹, a Kd of 0.24 nM, an off-rate (koff) of 0.000675 s⁻¹ and a kon of 2.81e+06 M⁻¹ s⁻¹.

B12: 5A7 scFv-Fc (Fc fusion)
VH: B11 VH
VL: B11 VL
notes: scFv-Fc format
As for B12, in assay [2], the Ka stood at 2.08e+09 M⁻¹; the affinity, expressed as Kd, was 0.48 nM; the koff was determined as 0.000647 s⁻¹; the kon was 1.35e+06 M⁻¹ s⁻¹.

B13: 7A9 scFv-Fc (Fc fusion)
VH: B11 VH
VL: B11 VL
notes: scFv-Fc format
On to B13, for which, in assay [2], the Ka came out at 3.87e+09 M⁻¹, binding was put at a Kd of 0.258 nM, the koff was found to be 0.00067 s⁻¹ and the kon was determined as 2.59e+06 M⁻¹ s⁻¹.

B14: 8B4 scFv-Fc (Fc fusion)
VH: ELQLVESGGGLVQPGGSLRLSCAASGFTFSNAYLYWVRQVPGKGLEWVSGINPAGDGRAYATSVKGRFTISRDNAKNTLYLQMNTLESDDTAVYYCATASRVVAYDSWGQGTQVTVSS
VL: EIVLTQSPSSVTASVGEKVTINCKSSQSVESGSDQKSYLNWYQQRPGQSPRLLIYYASTQESGIPDRFSGSGSTTDFTLTISSVQPEDAAVYYCQQAYSAPFTFGQGTKVELK
B14: the “attenuation of the ability of ApoC3 to inhibit VLDL uptake by HepG2 cells” value in assay [1] was around 60%.
